Measured values published in publication PMC8879280, “A Low-Activity Polymorphic Variant of Human NEIL2 DNA Glycosylase”.

How the values were obtained:
[1] = biological target: T1, hNEIL2 R103W R103W (Homo sapiens) (UniProt Q969S2); assay: EMSA; settings: THF (AP site analog) at position 21 of strand 1 (N); 25 mM potassium phosphate pH 7.5, 5 mM MgCl2, 1 mM DTT, 0.5 mg/mL BSA, 10% glycerol; 35 nM bubble or 100 nM duplex ligand; 5 min on ice, 8% native PAGE at 4 C
T1 sequence: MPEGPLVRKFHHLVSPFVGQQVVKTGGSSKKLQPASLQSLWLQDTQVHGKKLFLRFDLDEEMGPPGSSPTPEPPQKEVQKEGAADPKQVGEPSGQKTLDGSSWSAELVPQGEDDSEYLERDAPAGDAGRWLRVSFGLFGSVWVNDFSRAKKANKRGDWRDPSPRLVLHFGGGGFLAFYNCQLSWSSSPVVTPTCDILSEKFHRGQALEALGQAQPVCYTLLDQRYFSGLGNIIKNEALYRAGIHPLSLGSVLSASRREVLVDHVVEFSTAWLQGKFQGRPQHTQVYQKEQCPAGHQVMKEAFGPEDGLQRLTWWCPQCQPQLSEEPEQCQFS

hNEIL2 WT (Homo sapiens) = biological target: T2, hNEIL2 WT (Homo sapiens) (UniProt Q969S2); assay: EMSA; settings: THF (AP site analog) at position 21 of strand 1 (N); 25 mM potassium phosphate pH 7.5, 5 mM MgCl2, 1 mM DTT, 0.5 mg/mL BSA, 10% glycerol; 35 nM bubble or 100 nM duplex ligand; 5 min on ice, 8% native PAGE at 4 C
T2 sequence: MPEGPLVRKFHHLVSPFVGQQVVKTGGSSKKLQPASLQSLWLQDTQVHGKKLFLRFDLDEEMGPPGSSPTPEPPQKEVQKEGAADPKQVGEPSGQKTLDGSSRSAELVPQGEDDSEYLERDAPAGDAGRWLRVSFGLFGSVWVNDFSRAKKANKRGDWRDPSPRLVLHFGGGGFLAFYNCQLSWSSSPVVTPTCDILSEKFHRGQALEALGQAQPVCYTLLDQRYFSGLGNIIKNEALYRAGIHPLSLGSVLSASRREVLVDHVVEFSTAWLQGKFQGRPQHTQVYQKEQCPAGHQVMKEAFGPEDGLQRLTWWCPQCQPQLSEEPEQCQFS

[2] = biological target: T3, hNEIL2 P304T P304T (Homo sapiens) (UniProt Q969S2); assay: EMSA; settings: THF (AP site analog) at position 21 of strand 1 (N); 25 mM potassium phosphate pH 7.5, 5 mM MgCl2, 1 mM DTT, 0.5 mg/mL BSA, 10% glycerol; 35 nM bubble or 100 nM duplex ligand; 5 min on ice, 8% native PAGE at 4 C
T3 sequence: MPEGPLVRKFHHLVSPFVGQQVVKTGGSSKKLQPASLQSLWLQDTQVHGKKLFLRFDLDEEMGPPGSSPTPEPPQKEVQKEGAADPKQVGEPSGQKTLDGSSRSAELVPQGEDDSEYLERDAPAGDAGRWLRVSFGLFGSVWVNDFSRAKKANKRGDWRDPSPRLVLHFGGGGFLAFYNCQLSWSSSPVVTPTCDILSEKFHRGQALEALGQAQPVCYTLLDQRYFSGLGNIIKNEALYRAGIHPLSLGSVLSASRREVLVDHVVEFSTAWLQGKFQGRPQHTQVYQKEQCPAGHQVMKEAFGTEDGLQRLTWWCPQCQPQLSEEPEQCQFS

hNEIL2 WT = biological target: T4, hNEIL2 WT (Homo sapiens, UniProt Q969S2 1-332); assay: EMSA; 5 mM Mg2+; apparent, sigmoidal fit; 25 mM potassium phosphate pH 7.5, 5 mM MgCl2, 1 mM DTT, 0.5 mg/mL BSA, 10% glycerol; 35 nM bubble or 100 nM duplex ligand; 5 min on ice, 8% native PAGE at 4 C; settings: protein: recombinant; tags: C-terminal GHHHHHH; label: 32P; 10-nt central bubble between two 15-bp arms, blunt
T4 sequence: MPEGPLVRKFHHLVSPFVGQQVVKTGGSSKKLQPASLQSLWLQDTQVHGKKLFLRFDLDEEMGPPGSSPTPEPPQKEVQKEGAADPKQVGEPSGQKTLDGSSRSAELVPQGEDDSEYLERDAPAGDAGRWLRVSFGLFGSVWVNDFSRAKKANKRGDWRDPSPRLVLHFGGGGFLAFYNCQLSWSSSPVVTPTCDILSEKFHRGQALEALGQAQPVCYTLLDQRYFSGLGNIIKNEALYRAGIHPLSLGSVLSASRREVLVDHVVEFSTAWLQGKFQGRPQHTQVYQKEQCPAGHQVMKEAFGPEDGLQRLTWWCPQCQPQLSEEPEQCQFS

hNEIL2 P304T = biological target: T5, hNEIL2 P304T (Homo sapiens, UniProt Q969S2 1-332, P304T); assay: as above; settings: protein: recombinant; tags: C-terminal GHHHHHH; label: 32P; 10-nt central bubble between two 15-bp arms, blunt
T5 sequence: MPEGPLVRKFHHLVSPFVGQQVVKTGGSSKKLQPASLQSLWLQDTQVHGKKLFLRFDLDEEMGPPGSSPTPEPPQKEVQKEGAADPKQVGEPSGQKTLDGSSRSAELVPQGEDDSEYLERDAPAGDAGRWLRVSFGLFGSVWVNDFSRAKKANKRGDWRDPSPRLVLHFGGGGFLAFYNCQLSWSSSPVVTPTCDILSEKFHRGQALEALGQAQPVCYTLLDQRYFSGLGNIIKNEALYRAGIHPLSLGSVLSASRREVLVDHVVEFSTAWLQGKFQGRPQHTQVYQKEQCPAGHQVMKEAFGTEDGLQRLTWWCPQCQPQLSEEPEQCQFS

hNEIL2 R103W = biological target: T6, hNEIL2 R103W (Homo sapiens, UniProt Q969S2 1-332, R103W); assay: as above; settings: protein: recombinant; tags: C-terminal GHHHHHH; label: 32P; 10-nt central bubble between two 15-bp arms, blunt
T6 sequence: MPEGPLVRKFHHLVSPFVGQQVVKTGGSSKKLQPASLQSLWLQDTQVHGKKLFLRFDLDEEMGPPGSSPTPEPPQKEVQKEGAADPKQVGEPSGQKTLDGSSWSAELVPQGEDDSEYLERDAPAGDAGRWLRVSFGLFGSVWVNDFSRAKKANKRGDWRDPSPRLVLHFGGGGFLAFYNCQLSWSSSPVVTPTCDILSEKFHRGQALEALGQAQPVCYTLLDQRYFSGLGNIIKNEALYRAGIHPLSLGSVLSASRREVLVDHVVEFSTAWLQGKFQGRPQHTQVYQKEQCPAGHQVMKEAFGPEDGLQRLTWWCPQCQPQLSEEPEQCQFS

Molecule: CCTGCATGGGCGGCAGAACTNGAGGCCATCCTCACCATCC / GGATGGTGAGGATGGGAGGTTCCCTTGCCGCCCATGCAGG [40F//40bubble (THF bubble)]
- K half [1]: 10.4 µM
- K half (hNEIL2 WT (Homo sapiens)): 1000 nM
- K half [2]: 6.4 µM

B1: 40C//40bubble (undamaged bubble) (dsDNA)
DNA 1: CCTGCATGGGCGGCAGAACTCGAGGCCATCCTCACCATCC
DNA 2: GGATGGTGAGGATGGGAGGTTCCCTTGCCGCCCATGCAGG
- apparent K (half saturation) (hNEIL2 WT): 1000 ± 100 nM
- apparent K (half saturation) (hNEIL2 P304T): 7 ± 0.3 µM
- apparent K (half saturation) (hNEIL2 R103W): 11.7 ± 0.7 µM
